Source: patent EP2078531A2
Where “and” joins values, the source holds several entries; their conditions need not be identical. Equal values may be shown once.

Molecular target: T1, Human recombinant platelet factor-4 (human) (UniProt P02776)
T1 sequence (looked up): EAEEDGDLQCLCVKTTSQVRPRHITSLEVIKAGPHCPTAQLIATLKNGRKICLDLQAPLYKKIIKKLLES
Assay: PF4-sepharose affinity column, HUVEC conditioned medium

LOR-1 (from UniProt Q9Y4K0 26-774) (enzyme)
NaCl concentration at elution from the PF4 column: 0.4 M NaCl and 0.5 M NaCl
